Source: paper PMC12771579, “Distinct classes of gut bacterial molybdenum-dependent enzymes produce urolithins” (Proceedings of the National Academy of Sciences of the …, 2025)
One block for each compound: values may come before it.

Experiments:
Assay in all cases: continuous absorbance assay, methyl viologen, initial rates
Details in all cases: 200 µM methyl viologen, 100 µM sodium dithionite, 20 mM MOPS, 300 mM NaCl, pH 7.0, 30 °C, anaerobic
[1] = system: T1, O=c1oc2c(O)c(O)ccc2c2c(O)c(O)c(O)cc12; type: biochemical, Gordonibacter urolithinfaciens
T1 construct: recombinant, cumate-inducible expression in G. urolithinfaciens (called native host), purified anaerobically; bis-MGD enzyme without signal peptide; tag only in SI
From the text: continuous absorbance assay, methyl viologen, initial rates on Eadh1 | Eadh1 (C4-OH dehydroxylation of urolithin M5 to urolithin M6) | can accept urolithin D as a substrate to produce urolithin C

Eadh3 = system: T2, Eadh3; type: biochemical, Ellagibacter isourolithinifaciens
T2 construct: recombinant, expressed in G. urolithinfaciens, purified; bis-MGD enzyme without signal peptide; tag only in SI
From the text: continuous absorbance assay, methyl viologen, initial rates on Eadh3 | Eadh3 converted urolithin C to isourolithin A via C8-OH dehydroxylation | urolithin M6 was metabolized more readily by Eadh2 than by Eadh3

[2] = system: T1, O=c1oc2c(O)c(O)ccc2c2c(O)c(O)c(O)cc12; type: biochemical, Gordonibacter urolithinfaciens; remark: listed apart in the source
[3] = system: T3, O=c1oc2cc(O)ccc2c2c(O)c(O)c(O)cc12; type: biochemical, Gordonibacter urolithinfaciens
T3 construct: recombinant, cumate-inducible expression in G. urolithinfaciens (called native host), purified anaerobically; bis-MGD enzyme without signal peptide; tag only in SI

Compound: Eadh1 (Gordonibacter sp. 28C)
Km [1]: 11.8 ± 2.5 µM | kcat [1]: 8.60 ± 0.49 s⁻¹

Km (Eadh3): 19.9 ± 2.1 µM
Compound: O=c1oc2cc(O)ccc2c2cc(O)c(O)cc12 [urolithin C]

Compound: Eadh2 (Gordonibacter sp. 28C)
Km [2]: 34.1 ± 6.4 µM | kcat [2]: 0.42 ± 0.02 s⁻¹ | Km [3]: 13.8 ± 2.9 µM | kcat [3]: 0.65 ± 0.03 s⁻¹

Km (Eadh3): 78.4 ± 10.6 µM
Compound: O=c1oc2cc(O)ccc2c2c(O)c(O)c(O)cc12 [urolithin M6]
